Measurements as given in US11207340B2, “Tumor suppressor TET1 and uses thereof” (The Chinese University of Hong Kong, priority 2017, dated 2021).
Entries after “also recorded” stand apart in the source; their conditions may differ.

Legend:
Format in all cases: cell-based, human
[1] = system: TET1; assay: Demethylation treatment of silenced tumor cell lines: TET1 expression by semi-quantitative RT-PCR; conditions: 10 μmol/L Aza 3 days, alone or combined with HDAC inhibitor; nasopharyngeal, esophageal, colon, breast and renal tumor cell lines with methylated TET1
Excerpt: Human tumor cell lines of multiple tissue types were used^50-55, including nasopharyngeal (NPC), esophageal squamous cell (ESCC), lung, gastric, colorectal (CRC), hepatocellular (HCC), breast, cervical, renal (RCC), bladder and prostate carcinomas, melanoma, as well as non-Hodgkin (NHL), Hodgkin (HL) and nasal natural killer (NK)/T-cell (NKTCL) lymphomas. Immortalized, non-transformed normal epithelial cell lines were used as “normal” controls. Cell lines were obtained from either American Type Culture Collection or collaborators. When needed, cell lines were treated with 10 μmol/L 5-aza-2′-deoxycytidine (Aza) (Sigma-aldrich, St Louis, Mo.) for 3 days, without or with further treatment with 100 nmol/trichostatin A (TSA) (Cayman Chemical Co., Ann Arbor, Mich.) for additional ˜16 h as previously^50,53. Normal adult and fetal tissue RNA and DNA samples were purchased commercially (Stratagene, La Jolla, Calif.; Millipore-Chemicon, Billerica, Mass.). […]
(§1) Semi-quantitative RT-PCR and quantitative real-time PCR were performed as described before^50,53, with GAPDH as a control for all the samples shown in previous publications^31,51,52. qRT-PCR was carried out according to the manufacturer's protocol (HT7900 system; applied Biosystems), with SYBR Green master mix (applied Biosystems) used.

[2] = system: TET1 promoter; assay: Demethylation treatment of silenced tumor cell lines: TET1 promoter methylation by MSP and BGS; conditions: for TET1 promoter demethylation (unmethylated promoter alleles) by MSP: 10 μmol/L Aza 3 days, without or with TSA ~16 h, silenced tumor cell lines
Excerpt: Human tumor cell lines of multiple tissue types were used^50-55, including nasopharyngeal (NPC), esophageal squamous cell (ESCC), lung, gastric, colorectal (CRC), hepatocellular (HCC), breast, cervical, renal (RCC), bladder and prostate carcinomas, melanoma, as well as non-Hodgkin (NHL), Hodgkin (HL) and nasal natural killer (NK)/T-cell (NKTCL) lymphomas. Immortalized, non-transformed normal epithelial cell lines were used as “normal” controls. Cell lines were obtained from either American Type Culture Collection or collaborators. When needed, cell lines were treated with 10 μmol/L 5-aza-2′-deoxycytidine (Aza) (Sigma-aldrich, St Louis, Mo.) for 3 days, without or with further treatment with 100 nmol/trichostatin A (TSA) (Cayman Chemical Co., Ann Arbor, Mich.) for additional ˜16 h as previously^50,53. Normal adult and fetal tissue RNA and DNA samples were purchased commercially (Stratagene, La Jolla, Calif.; Millipore-Chemicon, Billerica, Mass.). DNA samples of primary carcinomas, nose swab from suspected NPC patients, as well as surgical margin normal tissues, have been described previously^31,51,52.
(§2) CpG island (CGI) analysis for TET1 promoter and exon 1 was performed using CpG island Searcher (http//ccnt.hsc.usc.edu/cpgislands2). Bisulfite modification of genomic DNA was carried out as described previously^56,57. For MSP analysis, approximately 50 ng of bisulfited DNA for each sample was amplified with methylation- or unmethylation-specific primer set, according to previously reported MSP protocol^58. Bisulfite-treated DNA was also amplified using a set of BGS primers, then cloned into pCR4-TOPO vector (Invitrogen, Carlsbad, Calif.), with 8-10 clones randomly picked and sequenced.

[3] = system: NPC, ESCC, gastric, colon and breast tumor cells; assay: Colony formation assay of tumor cells; conditions: ectopic expression
Method: (§3) Human TET1 catalytic domain (TET1-CD) cDNA and its catalytic domain mutant (TET1-CD-mut) clones (Addgene, Cambridge, Mass.) were used as templates to generate TET1 constructs with an N-terminal Flag tag, and subcloned into pcDNA3.1 vector (Invitrogen, Carlsbad, Calif.). Cells were cultured overnight in a 12-well plate and transfected with empty vector or TET1-CD, TET1-CD-mut-expressing plasmids using Lipofectamine 2000 (Invitrogen, Carlsbad, Calif.). Forty-eight hours later, transfectants were replated in triplicate and cultured for 10-15 days in complete medium containing G418. Surviving colonies were stained with crystal violet (0.5% w/v) after methanol fixation, with visible colonies (≥50 cells) counted.

[4] = system: NPC tumor cells (HONE1); assay: TUNEL assay; conditions: compared with vector or TET1-CD-mut controls
Method: Cells cultured on coverslips were fixed with 4% paraformaldehyde, and permeabilized with 0.1% triton X-100. TUNEL (Terminal deoxynucleotidyl transferase dUTP nick end labeling) staining was performed using the In Situ Cell Death Detection Kit (Roche, Mannheim, Germany).

[5] = system: HOXA9, HOXA5, PCDH7, TCF4, MEIS1, SLIT2 and ZNF382; assay: TSG expression by semi-quantitative RT-PCR and qRT-PCR in TET1-CD-expressing carcinoma cells
Method: as §1, §3

[6] = system: HOXA9, SLIT2 and ZNF382 promoters; assay: TSG promoter methylation by MSP in TET1-CD-expressing tumor cells
Method: as §2, §3

Molecule	TET1 expression after treatment [1]	TET1 promoter demethylation (unmethylated promoter alleles) by MSP [2]	TET1 promoter demethylation (unmethylated promoter alleles) by MSP ([2]; listed as Aza)	TET1 promoter CpG sites by BGS analysis ([2]; after Aza treatment, alone or combined with HDAC inhibitor)	tumor cell clonogenicity, % of control cells ([3]; NPC, ESCC, gastric, colon and breast tumor cells, vs control cells)	suppression of tumor cell clonogenicity / growth ([3]; colony formation assays of tumor cells of multiple tissue types)	numbers of apoptotic cells [4]	TSG expression at mRNA levels (HOXA9, HOXA5, PCDH7, TCF4, MEIS1, SLIT2, ZNF382) [5]	methylated alleles of HOXA9, SLIT2 and ZNF382 promoters [6]	unmethylated promoter alleles of HOXA9, SLIT2 and ZNF382 [6]
Nc1ncn([C@H]2C[C@H](O)[C@@H](CO)O2)c(=O)n1 [5-aza-dC, 5-aza-2′-deoxycytidine]	restoration	increased	demethylated	dramatically demethylated	–	–	–	–	–	–
TET1-CD: Human TET1 catalytic domain (Cys-rich and DSBH regions), N-terminal Flag tag, expressed from pcDNA3.1 plasmid; SEQ ID NO:6 (protein, listed as Homo sapiens, N-terminal Flag tag) ELPTCSCLDRVIQKDKGPYYTHLGAGPSVAAVREIMENRYGQKGNAIRIEIVVYTGKEGKSSHGCPIAKWVLRRSSDEEKVLCLVRQRTGHHCPTAVMVVLIMVWDGIPLPMADRLYTELTENLKSYNGHPTDRRCTLNENRTCTCQGIDPETCGASFSFGCSWSMYFNGCKFGRSPSPRRFRIDPSSPLHEKNLEDNLQSLATRLAPIYKQYAPVAYQNQVEYENVARECRLGSKEGRPFSGVTACLDFCAHPHRDIHNMNNGSTVVCTLTREDNRSLGVIPQDEQLHVLPLYKLSDTDEFGSKEGMEAKIKSGAIEVLAPRRKKRTCFTQPVPRSGKKRAAMMTEVLAHKIRAVEKKPIPRIKRKNNSTTTNNSKPSSLPTLGSNTETVQPEVKSETEPHFILKSSDNTKTYSLMPSAPHPVKEASPGFSWSPKTASATPAPLKNDATASCGFSERSSTPHCTMPSGRLSGANAAAADGPGISQLGEVAPLPTLSAPVMEPLINSEPSTGVTEPLTPHQPNHQPSFLTSPQDLASSPMEEDEQHSEADEPPSDEPLSDDPLSPAEEKLPHIDEYWSDSEHIFLDANIGGVAIAPAHGSVLIECARRELHATTPVEHPNRNHPTRLSLVFYQHKNLNKPQHGFELNKIKFEAKEAKNKKMKASEQKDQAANEGPEQSSEVNELNQIPSHKALTLTHDNVVTVSPYALTHVAGPYNHWV	–	–	–	–	40-50%	inhibited	significantly increased; also recorded: induced	Mild upregulation; also recorded: upregulated	decreased	increased
